Measured values published in US9766250B2, “Method for detecting protein-protein interaction” (MEDICAL & BIOLOGICAL LABORATORIES CO., LTD., priority 2011, dated 2017).
Positions count from the first letter of the chain named.

B1: COR3.01: fluorescent protein capable of homotetramerization, SEQ ID NO: 151 (protein)
chain: MALSKHGLTKNMTTKYRMEGCVDGHKFVITGDGIGDPFEGKQTSIDLCVVEGGPLPFSEDILSTVFDYGNRVFTKYPQDLVDYFKNSCPAGYTWQRSFLFEDGAVCTASADIRVSVEENCFYHESKFHGVNFPADGPVMKKMTTNWEPSCEKITPILNEGILKGDVTMFLLLKDGGRYRCQFDTVYKAKADAKKMPEWHFIQHELTREDRSDAKHQKWRLVENAIAYRSTLP
modifications: Synthetic sequence COR3.01
B2: COR5: fluorescent protein capable of homotetramerization, SEQ ID NO: 172 (protein)
chain: B1 chain with K194D, W198M, N223S, L231P
modifications: Synthetic sequence COR5
B3: DsRed2: fluorescent protein capable of homotetramerization, SEQ ID NO: 153 (protein)
chain: MASSENVITEFMRFKVRMEGTVNGHEFEIEGEGEGRPYEGHNTVKLKVTKGGPLPFAWDILSPQFQYGSKVYVKHPADIPDYKKLSFPEGFKWERVMNFEDGGVATVTQDSSLQDGCFIYKVKFIGVNFPSDGPVMQKKTMGWEASTERLYPRDGVLKGETHKALKLKDGGHYLVEFKSIYMAKKPVQLPGYYYVDAKLDITSHNEDYTIVEQYERTEGRHHLFL
modifications: Synthetic sequence DsRed2
B4: monomeric Kikume Green-Red1 (protein)
chain: MVSVITSEMKIELRMEGSVNGHKFVITGKGSGRPYEGTQTVDLTVIEGGPLPFAFDILTTAFHYGNRVFVEYPEEIVDYFKQSFPEGYSWERSMSYEDGGICLATNNITMKKDGSNTFVNEIRFDGTNFPANGPVMQRKTVKWEPSTEKMYVRDGVLKGDVEMALLLEGGGHYRCDFRTTYKAKKVVQLPDYHYVDHQMEITSHDKDYNKVKAYEHAKAYSGTYRGAKYEFEA
modifications: Synthetic sequence mKikGR1

Key:
[1] = molecular target: T1, mTOR(FRB) and FKBP12 interaction (Homo sapiens, UniProt P42345+P62942); assay: Degree of fluorescent focus (assembly) formation after rapamycin with TFG(PB1) (Example 9, Table 2); assay type: cell-based; details: fluorescent protein fused to mTOR(FRB), KO1 and dAG (AB) in 293T cells
T1 construct: region having the 2025th to 2114th amino acids of the mTOR protein; expressed in transfected cells; host or cells: HeLaS3; 293T for some combinations with FKBP12-Tankyrase(SAM)
T1 sequence (P42345 2025-2114): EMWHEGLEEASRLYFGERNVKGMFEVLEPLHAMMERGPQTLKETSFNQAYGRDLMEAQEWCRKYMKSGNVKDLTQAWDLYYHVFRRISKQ
T1 sequence (P62942 whole entry, the tested form may be a part): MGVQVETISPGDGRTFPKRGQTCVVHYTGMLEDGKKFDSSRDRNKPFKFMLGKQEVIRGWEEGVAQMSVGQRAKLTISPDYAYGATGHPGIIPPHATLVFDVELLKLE

[2] = molecular target: T1, mTOR(FRB) and FKBP12 interaction; assay: Degree of fluorescent focus (assembly) formation after rapamycin, fluorescent proteins fused to mTOR(FRB) (Example 8, Table 1); assay type: cell-based; details: fluorescent protein fused to mTOR(FRB); for degree of fluorescent focus formation, DGKd (SAM): with FKBP12-DGKd(SAM); for degree of fluorescent focus formation, TEL (SAM): with FKBP12-TEL(SAM); for degree of fluorescent focus formation, Tankyrase (SAM): with FKBP12-Tankyrase(SAM), some combinations in 293T cells; for degree of fluorescent focus formation, P62 (PB1): with p62(PB1)-FKBP12
Procedure: Note that plasmid DNAs encoding fusion proteins composed of mTOR(FRB) and the corresponding fluorescent proteins were prepared as appropriate by the same method as that described in Example 2. Moreover, regarding the combinations of FKBP12-Tankyrase(SAM) with mKO2, mKeima, mMiCy1, mKO1, MiCy1, and TGuv, the test was conducted by introducing the genes into 293T cells. Specifically, the 293T cells were cultured in DMEM High glucose (manufactured by SIGMA ALDRICH CO.) containing 10% FBS (manufactured by Equitech-Bio Inc.). Moreover, the 293T cells were seeded onto an 8-well chamber (manufactured by Nunc A/S) 6 hours before the plasmid DNAs were introduced. Further, at the time of the transfection, 200 ng of the plasmid DNA encoding FKBP12-Tankyrase(SAM) and 200 ng of one of the plasmid DNAs encoding fusion proteins composed of the fluorescent proteins and mTOR(FRB) were diluted with 30 μl of OptiMEM (manufactured by Life Technologies Corporation), and 1.2 μl of TurboFect Transfection Reagent (manufactured by Thermo Fisher Scientific Inc.) was added thereto and stirred. Then, the resultant was further mixed with 300 μl of the culture solution, subsequently added to the 293T cells, and observed 48 hours later.

| Molecule | degree of fluorescent focus formation, TFG (PB1) [1] | degree of fluorescent focus formation, DGKd (SAM) [2] | degree of fluorescent focus formation, TEL (SAM) [2] | degree of fluorescent focus formation, Tankyrase (SAM) [2] | degree of fluorescent focus formation, P62 (PB1) [2] |
| --- | --- | --- | --- | --- | --- |
| B1 | ++ (fluorescent foci were observed in 50% or less of the HeLaS3 cells) | +++ (fluorescent foci were observed in 50% or more of the HeLaS3 cells) | +++ (fluorescent foci were observed in 50% or more of the HeLaS3 cells) | +++ (fluorescent foci were observed in 50% or more of the HeLaS3 cells) | +++ (fluorescent foci were observed in 50% or more of the HeLaS3 cells) |
| B2 | ++ (fluorescent foci were observed in 50% or less of the HeLaS3 cells) | +++ (fluorescent foci were observed in 50% or more of the HeLaS3 cells) | +++ (fluorescent foci were observed in 50% or more of the HeLaS3 cells) | +++ (fluorescent foci were observed in 50% or more of the HeLaS3 cells) | +++ (fluorescent foci were observed in 50% or more of the HeLaS3 cells) |
| B3 | ++ (fluorescent foci were observed in 50% or less of the HeLaS3 cells) | +++ (fluorescent foci were observed in 50% or more of the HeLaS3 cells) | +++ (fluorescent foci were observed in 50% or more of the HeLaS3 cells) | +++ (fluorescent foci were observed in 50% or more of the HeLaS3 cells) | +++ (fluorescent foci were observed in 50% or more of the HeLaS3 cells) |
| B4 | ++ (fluorescent foci were observed in 50% or less of the HeLaS3 cells) | +++ (fluorescent foci were observed in 50% or more of the HeLaS3 cells) | +++ (fluorescent foci were observed in 50% or more of the HeLaS3 cells) | +++ (fluorescent foci were observed in 50% or more of the HeLaS3 cells) | +++ (fluorescent foci were observed in 50% or more of the HeLaS3 cells) |
